How the values were obtained:
[1] = biological target: interferon-alpha/β receptor (IFNAR) (human) (UniProt P17181)
[2] = biological target: interferon-alpha/β receptor (IFNAR) (human) (UniProt P17181); remark: listed apart in the source
[3] = biological target: interferon-alpha/β receptor (IFNAR) (human) (UniProt P17181); remark: listed apart in the source

Chain of interferon-alpha/β receptor (IFNAR) (human) (P17181 28-557 limits assumed): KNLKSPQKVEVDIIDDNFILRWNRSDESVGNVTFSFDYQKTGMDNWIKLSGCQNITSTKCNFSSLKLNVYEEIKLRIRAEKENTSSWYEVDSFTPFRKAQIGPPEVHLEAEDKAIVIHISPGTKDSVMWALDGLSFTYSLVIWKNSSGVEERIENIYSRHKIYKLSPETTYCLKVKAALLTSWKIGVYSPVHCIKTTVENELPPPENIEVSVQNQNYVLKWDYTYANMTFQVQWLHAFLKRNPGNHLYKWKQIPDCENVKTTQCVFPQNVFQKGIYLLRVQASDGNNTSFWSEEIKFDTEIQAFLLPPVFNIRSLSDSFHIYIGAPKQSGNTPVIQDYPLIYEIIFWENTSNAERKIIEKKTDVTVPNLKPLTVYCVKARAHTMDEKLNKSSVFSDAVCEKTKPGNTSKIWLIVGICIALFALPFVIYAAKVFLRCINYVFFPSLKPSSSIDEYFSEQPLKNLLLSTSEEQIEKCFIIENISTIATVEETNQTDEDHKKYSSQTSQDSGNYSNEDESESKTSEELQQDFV

EC50; HEK-Blue IFN-alpha/β SEAP reporter (A630) on CD38-negative cells; table column headed 'IFNa2b', curve labelled 'Intron A', the unit comes from the x axis 'IFN pM' [1]: 1.52 pM
half-maximal concentration headed 'IC50 pM' on the sheet (paragraph 233 calls the values EC50; the curves rise); iLite IFN-response-element luciferase reporter (RLU) [2]: 0.0645 pM
EC50; HEK-Blue IFN-alpha/β SEAP reporter (A630nm), left panel, the unit comes from the x axis 'Ifnα2b Equivalents in pM' [3]: 1.13 pM
EC50; HEK-Blue IFN-alpha/β SEAP reporter (A630nm), right panel, the unit comes from the x axis 'IFNα2b equivlaents in pM' [3]: 1.52 pM
Substance: Intron A (ligand)

From patent publication US20180305460A1
